Results published in the nanobody polyreactivity screen of Harvey et al. (2022).

Experiment: yeast display, Sf9 membrane polyspecificity reagent, FACS + sequencing; frameworks hold sequencing errors
In short: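 Sorting gates, low and high (top ~1%), were placed on anti-HA fluorescence to track expression and on streptavidin fluorescence to track reagent binding. A clone's polyreactivity label is taken from the gate it came out of. The reagent was 10% biotinylated, detergent-solubilized Sf9 membrane, applied for 1 hour at 4 °C to galactose-induced yeast display cells.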

Q: Which “polyreactivity (PSR sort gate)” value does the source give for “QVQLVESGGGLVQAGGSLRLSCAASGLTFKYYAMGWYRQAPGKERELVAIISFGGGSTYYADSVKGRFTISRDNAKNTVYLQMNSLKPEDTAVYYCNARLLFKYGYWGQGTQVTVSS” here?
A: high polyreactivity

Q: For “QDQLVESGGLLVQAGGSLRLSCAAYGSTIGVYAMGWYRQAPRKERELVAAISSSTGSTYYADSVKGRFTISRDNAKNTVYLQMIRQKPEDTAVFYCAAAGYGKVRGDYWGQGTQVSVSS”, which “polyreactivity (PSR sort gate)” value is on record?
A: low polyreactivity

Q: Which “polyreactivity (PSR sort gate)” value does the source give for “QVQHVESGGGLVQAGGSLRLSCAASGFIFARNAMGWYRQARGKERELVAVISTRGRTYYADSVKGRFTFSRDNAKNTVYLQMNSLKPEDTAVYYCNADKVIGYDYWGQGTQVTVSS” here?
A: high polyreactivity

Q: For “QVQLVESGGGLVQAGGSLRLSCAASGRIFDYYAMGWYRQAPGKERELVASISRSGGSTYYADSVKGRFTISRDNAKNTVYLQMNSLKPEDTAVYYCAARRGYYYGRVGYWGQGTQVTVSS”, which “polyreactivity (PSR sort gate)” value is on record?
A: high polyreactivity

Q: Which “polyreactivity (PSR sort gate)” value does the source give for “QVQLVESGGGLVQAGGSLRLSCAASGFTFSKYAMGWYRQAPGKERELVAAITSGDDTNYADSVKGRFTISRDNAKNTVYLQMNSLKPEDTAVYYCNAEYTVYYSYWAIGVDYWGQGTQVTVSS” here?
A: high polyreactivity

Q: With “QVQLVESGGGLVQAGGSLRLSCAASGGTFRVYAMGWYRQAPGKERELVAAITGRGGSTYYADSVKGRFTISRDNAKNTVYLQMNSLKPEETAVYYCAKDPVTTYYKYDYWGQGTQVTVSS” as the sequence, how does the “polyreactivity (PSR sort gate)” value read?
A: low polyreactivity

Q: With “QVQLVESGGGLVQAGVSLRLSCAASGNTFKYYPMGWYRQAPGKEWELVAGITGTGGRTNYADSVKGRFTISRDNAKNTVYLQMTSLKPEDTAVYYFAADYWWYTGYDYWGQGTQVTVSS” as the sequence, how does the “polyreactivity (PSR sort gate)” value read?
A: high polyreactivity

Q: Which “polyreactivity (PSR sort gate)” value does the source give for “QVQLVESGGLLVQAGGILRLSCAASGITFQYYAMGWSRQAPGKERELVAANTSSGVSTYYADSVKGRFTISRDNAKNTVYFQMNSLKPEDTAVYYCNTVVRGWSSSADDYWVQGTQVTVSS” here?
A: low polyreactivity

Q: With “QVQLVESGGGLVQAGGSLRLSCAASGFTFRYYAMGWYRQAPGKERELVAAITRNGGSTYYADSVKGRFTISRDNAKHTVYLQMNSLKPEETAVYYCNRYGRQYDFYYWGQGTQVTVSS” as the sequence, how does the “polyreactivity (PSR sort gate)” value read?
A: high polyreactivity

Q: Which “polyreactivity (PSR sort gate)” value does the source give for “QVQLVESGGGLVQAGGSLRLSCAASGFTIYYYAMGWYRQAPGKERELVASISWRGGSTYYADSVKGRFTISRDNAKNTDYIQINSLKAEDTAVYYCAAQKRGSPGNRRDYWGQGTQVTVSS” here?
A: high polyreactivity

Q: Which “polyreactivity (PSR sort gate)” value does the source give for “QVQLVESGGGLVQAGGSLRLSCAASGRIFYNNAMGWYRQAPGKERELVAGISRSSGRTYYADSVKGRFTISRDIAKNTVYLQMNSLKPEDTAVYYCNTVSWPLSSKYYYWGQGTQVTVSS” here?
A: high polyreactivity

Q: For “QVQLVESGGGLVQAGGSLRLSCAASGSTFWPNAMGWYRQAPGKERELVAGITTSSGSTFYAHSVKGRFTISRDNAKNTVYLQMNSLKPEDTAVYDCNARVRRRRYKYDYWGQGTQVTVSS”, which “polyreactivity (PSR sort gate)” value is on record?
A: high polyreactivity

Q: With “QVQLVESGGGLVQAGGSLRLSCAASGRTFYGYAMGWYRQAPGKERELVAAISRRGGSTNYADSVKGRFTISRDNAKNSVYLQMNSLKPEDSAVYYCNANYYRTHYDYWGQGTQVTVSS” as the sequence, how does the “polyreactivity (PSR sort gate)” value read?
A: high polyreactivity

Q: With “QVQLVESGGGLVQAGGSLRLSCAASGSIFFRYAMGWYRPAPGKERELVAAISSSGGSTYYADSVKGRFTISRDNAKNTVYLQMNSLKPEDTAVYYCAARYYSKYYYSPFDYWGQGTQVTVSS” as the sequence, how does the “polyreactivity (PSR sort gate)” value read?
A: high polyreactivity

Q: With “QVQLVESGGGLVQAGGSRRLSCAASGITFSRYAMGWYRQAPGKERELVAAITSSGGSTYYADSVKGRFTISRDNAKNTVYLQMNSLKPEDTAVYYCAATSYYTREQYYYWGQGTQVTVSS” as the sequence, how does the “polyreactivity (PSR sort gate)” value read?
A: high polyreactivity

Q: Which “polyreactivity (PSR sort gate)” value does the source give for “QVQHVESGGGLVQAGGSLRLSCAASGSTFTTNAMGWYRQAPGKERELVAAITASGGRTYYADSVKGRFTISRDNAKNTVYLQMNSLKPEDTAVYYCAADSGNEYDYWGQGTQVTVSS” here?
A: low polyreactivity

Q: Which “polyreactivity (PSR sort gate)” value does the source give for “QVQLVESGGGIVQAGGSLRLSCAASGIISRVYAMGWYRQAPGKERELVAAISGSGGTTYYADSVKGRFTISRDNAKNTVYLQMNRLKPEDTAVDYCAARYKALYDYWGQGTQVTVSS” here?
A: high polyreactivity

Q: With “QVQLVESGGRLVPAGGSLRLTCAASGIISVYYVMGWYRPAPGKERELVAAINRSGGNTYYADSVKGRFTISRDNAKNTVYLQMNSLKPEDTAVYYCKASLYFYRYGHDDESDYWGQGTQVTVSS” as the sequence, how does the “polyreactivity (PSR sort gate)” value read?
A: high polyreactivity

Q: With “QVQLVESGGGLVQAGGSLRLSCAASGSTIPRNAMGWYRPAPGKERELVAAITSGGSTNYADSVKGRFTLSRDNAKNTVYLQINSLKPEDTAVYYCAADEQVNTQYVVWGDYWGQGTQVTVSS” as the sequence, how does the “polyreactivity (PSR sort gate)” value read?
A: low polyreactivity

Q: Which “polyreactivity (PSR sort gate)” value does the source give for “QVQLVESGGGLVQAGGSLRLSCAASGRIIYKNAMGWYRQAPGKERELVAAITSSGGSTYYADSVKGRFTISRDNAKNTVYLQMYSLKPEDTAVYYCATDWPHWRKVYWFDYWGQGTQVTVSS” here?
A: low polyreactivity

Q: For “QVQLVESGGGLVQAGGSLRLSCAASGSIFKGYAMGWYRQAPGKERELVAAITIDGSTYYADSVKGRFTISRDNAKNTVYLQMNSLKPEDTAVYYCAAVYLWYGSWPLHFAAYDYWGQGTQVTVSS”, which “polyreactivity (PSR sort gate)” value is on record?
A: low polyreactivity

Q: With “QVQLVVSGGGLVQAGGSLRLSCAASGYIFYANAMGWYRQAPGKEWELVAAITQSGGRTYYADSVKGRFTISRDNAKNTVYLQMNSLKPEDTAVYYCAAQPWRALGYYYWGQGTQVTVSS” as the sequence, how does the “polyreactivity (PSR sort gate)” value read?
A: high polyreactivity

Q: Which “polyreactivity (PSR sort gate)” value does the source give for “QVQLVESGGGLVQAGGSLRLSSAASGLTFNYYAMGWYRQAPGKERELVAAISKSGGRTYYADSVKGRFTISRDNAKNTVYLQMNSLKPEDTAVYYCNDVVPRSRYFSWTYDYWGQGTQVTVSS” here?
A: high polyreactivity

Q: With “QVQLVESVGGLVQAGGSLRLSCAASGSIFTYNAMGWYRQAPGKERELVAAITTSGDSTYYADSVKGRFTISRDNAKNTVYLQMNSLKPEDTAVYYCNADWSWYNYYDFDYWGQGTQVTVSS” as the sequence, how does the “polyreactivity (PSR sort gate)” value read?
A: low polyreactivity

Q: Which “polyreactivity (PSR sort gate)” value does the source give for “QVQLVESGGGLVQAARSHRVSCAASGSIFWGNVKGWYRQAPGNESELVAAINSGGSTYYADSVKGRFTISRDNAKNTVYLQMNSLIPEDTAVYYCAAAINRYRGTFNYWGQGTQVSVSS” here?
A: high polyreactivity

Q: For “QVQLVESGGGLVQAGGSLRLSCAASGSTFPIYAMGWYRQAPGKERELVAAITHRDGSTYYADSVKGRFTISRDNAKNTVYLQMNSLKPEDTAVYYCAAETYVVWFTFDYWGQGTQVTVSS”, which “polyreactivity (PSR sort gate)” value is on record?
A: high polyreactivity

Q: For “QVQLVESGGGLVHAGGSLRLSCAASGSIFYNYAKGWYRQAPGKERELVAAIDSGGSTYYADSVKGRFTISRDNAKNTVYLQMNSLKPEDSAVYSCAADTYWFVYYGYDYWGQGTQVTVSS”, which “polyreactivity (PSR sort gate)” value is on record?
A: low polyreactivity

Q: With “QVQLVESGGGLVQAGGSLRLSCASSGSTFTTNALGWYRQAPGKERELVAAISRRGGSTYYADSVKGRFRISRDNAKNTVYLQMNSLKPEDTAVYYCNAVRAEYEFDYWGQGTQVTVSS” as the sequence, how does the “polyreactivity (PSR sort gate)” value read?
A: high polyreactivity

Q: For “QVQLVESGGGLVQAGGSLRLSCAPSGRIVGKYVMGWDRQAPRKERELVAGICWSAGSTYYADSVKGRFTISRDNAKNTVYLQMNSLKPEDTAVYYCAAGLEGGSDYWGQGTQVTVSS”, which “polyreactivity (PSR sort gate)” value is on record?
A: low polyreactivity

Q: Which “polyreactivity (PSR sort gate)” value does the source give for “QVQLVESGGGLVQAGGSLRLSCAASGFIFYPYAMGWYRQAPGKERELVASIYSGGRTYYADSVKGRFTISRDNAKNTVYLQMNSLKPEDTAVYYCNARSRYFGYDYWGQGTQVTVSS” here?
A: high polyreactivity

Q: For “QVQLVESGGVLLQAGGSLRLSCAASGSIFYPYAMGWYRQAPGKERELFAAITYIDADTYYADSVKGRFTISRDNAKNTVYLQMNSLKPEDTAVYYCAAEIPVYQGTGEDDYWGQGTQVTVSS”, which “polyreactivity (PSR sort gate)” value is on record?
A: low polyreactivity

Q: With “QVQLVESGGGLVQAGGSLRLSCAASGSTCILNAMGWYRQAPGKERELVATISSSDTSTYYADSVKGRFTISRDNAKNTVYLQMNCLKPEDTAVYYCNADYYTTSYLQGVYHYGVEYDFWGQGTQVTVSS” as the sequence, how does the “polyreactivity (PSR sort gate)” value read?
A: low polyreactivity

Q: For “QVQLVESGGGLVQAGGSLRLSCAASGRTFPYYAMGWYRQAPGKERELVAAINGRGGSTYYSDSVKGRFTISRDNAKNTVYLQMNSLKPEDTAVYYCAARYESRYSRYGYWGQGTQVTVSS”, which “polyreactivity (PSR sort gate)” value is on record?
A: high polyreactivity

Q: For “QVQLVESGGGLVQAGGSLRLSCAASGSIFEVYAMGWYRQAPGKERELVAAINYTGGSTYYADSVKGRFTISRDNAKNTVYLQMNSLKPEDTAVYYCARDTSGIGTRYDYWGQGTQVTVSS”, which “polyreactivity (PSR sort gate)” value is on record?
A: low polyreactivity

Q: With “QVQLQESGGGLVQAGGSLRLSCAASGSIYVSVTMGWYRQAPGKERELVASIGRGSTTNHADSVKGRFTISRDNAKNIVYLLMNSLKPEDTAVYYCAALESYGKYHGYWGEGTQVTVSS” as the sequence, how does the “polyreactivity (PSR sort gate)” value read?
A: low polyreactivity

Q: For “QVQLQESGAALVQAGGSLRLSCAASGNIFVDAYMGWYRQAPGKERELVATIAPADSVKGRFTISRDNAKNTVYLQMNRLKPEDTAVYYCAAFTGYSSVFGFWGQGIQVTVSS”, which “polyreactivity (PSR sort gate)” value is on record?
A: high polyreactivity

Q: For “QVQLVESGGGLVQAGGSLRLSCAASGFIFTLYTMGWYRPAPGKERELVAAISGRGGYTYYADSVKGRFTISRDNAKNTVYLHMNSLKPEDTAVYYCARAAYGFRARSGGDYWGQGTQVTVSS”, which “polyreactivity (PSR sort gate)” value is on record?
A: high polyreactivity

Q: With “QVQLVQSGGGLVQAGGILRLSCAASVSTLFGYAMGWYRQAPGKERELVAAINTGGSTNDADSVKGRFTISRDNAKNTVYVQMNSLKPEDTAVYYCAADYEWDAFAYDYWGHGTQVTVSS” as the sequence, how does the “polyreactivity (PSR sort gate)” value read?
A: low polyreactivity

Q: For “QVQLVESGGGLVQAGGSLRLSCAASGRTFANYAMGWYRQAPGKERELVATITWSDGSTYADSVKGRFTISRDNAKNTVYLQMNSLKPEDTAVYYCATRRYGKVFYPSQYTRYDYWGQGTQVTVSS”, which “polyreactivity (PSR sort gate)” value is on record?
A: high polyreactivity

Q: With “QVQLVESGGGLVQAGGSLRLSCAASGFIFQTNVMGWYRQAPGKERELVAAISSGDSTYYADSVKGRFTISRDNAKNTVYLQMNSLKPEDTAVYYCAADSIRTLLTGNTVYIWYGYWGQGTQVTVSS” as the sequence, how does the “polyreactivity (PSR sort gate)” value read?
A: low polyreactivity

Q: Which “polyreactivity (PSR sort gate)” value does the source give for “QVQLVESGGGLVQAGGSLRLSCAASGFIFQANAMGWYRQAPGKERELVAAIDDGDSTYADSVKGRFTISRDNAKNTVYLQMNSLKPEDTAVYYCATRRNRSYDYWGQGTQVTVSS” here?
A: low polyreactivity
